Target: MBP-MlCYC2A (M. lewisii)
Experiment: SPR

Kd | Substance
1.44 µM | GST-MlBOP (natural protein)
0.968 µM | GST-bop-1 (GST-tagged MlBOP with the H39L point mutation) (natural protein)
